Measurements reported in patent publication US20050037969A1 (ARBOR VITA, published 2005).
Ends that are not written are not given here. * marks the point of attachment. Biotin = O=C1N[C@H]2[C@H](CS[C@H]2CCCCC(=O)*)N1

Legend:
Experiment in all cases: A/G assays
[1] = target: T1, TAX-IP2L PDZ-GST fusion protein (Homo sapiens (Human), UniProt Q8TF64 107-197)
T1 construct: Order of GST and PDZ part and limits not seen in the excerpts
T1 sequence: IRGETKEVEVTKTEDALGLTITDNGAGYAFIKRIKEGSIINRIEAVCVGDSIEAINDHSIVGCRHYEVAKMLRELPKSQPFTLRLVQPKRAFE

[2] = target: T2, TAX-IP33 PDZ-GST fusion protein (Homo sapiens (Human), UniProt O14910 103-193)
T2 construct: Order of GST and PDZ part and limits not seen in the excerpts
T2 sequence: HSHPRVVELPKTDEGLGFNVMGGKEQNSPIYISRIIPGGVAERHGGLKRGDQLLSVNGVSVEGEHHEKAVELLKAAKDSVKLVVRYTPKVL

[3] = target: T3, GEF PDZ-GST fusion protein (Homo sapiens (Human), UniProt Q8TEU7 293-400)
T3 construct: The label GEF is not explained in the excerpts
T3 sequence: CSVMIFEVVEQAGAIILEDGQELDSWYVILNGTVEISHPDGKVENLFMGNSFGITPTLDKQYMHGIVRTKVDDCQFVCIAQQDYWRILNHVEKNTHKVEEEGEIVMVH

[4] = target: T4, GST-RGS12 PDZ domain fusion protein (human, UniProt O14924 17-85)
T4 construct: also called human regulator of G-protein signalling 12; not shown: glutathione S-transferase encoded by vector pGEX-3X (Pharmacia)
T4 sequence: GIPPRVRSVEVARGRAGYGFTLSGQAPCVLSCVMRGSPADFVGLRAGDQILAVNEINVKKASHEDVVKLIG

[5] = target: T5, GST-TAX-IP2 PDZ domain fusion protein (human, UniProt O14908 129-216)
T5 construct: also called TAX-1P2; TAX2; not shown: glutathione S-transferase encoded by vector pGEX-3X (Pharmacia)
T5 chain: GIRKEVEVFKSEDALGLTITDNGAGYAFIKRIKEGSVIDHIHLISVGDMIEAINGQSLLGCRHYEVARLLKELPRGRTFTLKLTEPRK

[6] = target: T6, SP short PDZ-GST fusion protein (Homo sapiens (Human), UniProt O43464 350-435)
T6 construct: The label SP short is not explained in the excerpts
T6 sequence: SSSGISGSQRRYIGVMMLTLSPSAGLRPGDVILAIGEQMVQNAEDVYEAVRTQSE

[7] = target: T7, GST-PTN-4 PDZ domain fusion protein (Homo sapiens (Human), UniProt P29074 517-605)
T7 construct: also called protein-tyrosine phosphatase meg1; not shown: glutathione S-transferase encoded by vector pGEX-3X (Pharmacia)
T7 sequence: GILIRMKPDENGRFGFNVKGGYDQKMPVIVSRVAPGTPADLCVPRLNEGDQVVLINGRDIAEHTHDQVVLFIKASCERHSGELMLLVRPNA

[8] = target: T8, GST-AF6 PDZ domain fusion protein (Homo sapiens (Human), UniProt P55196 1001-1093)
T8 construct: also called af-6 protein; not shown: glutathione S-transferase encoded by vector pGEX-3X (Pharmacia)
T8 sequence: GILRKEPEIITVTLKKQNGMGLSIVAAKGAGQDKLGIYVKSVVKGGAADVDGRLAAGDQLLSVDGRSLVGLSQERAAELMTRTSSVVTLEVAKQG

[9] = target: T9, GST-DVL1 PDZ domain fusion protein (human, UniProt O14640 247-339)
T9 construct: also called human dishevelled segment polarity protein homolog; not shown: glutathione S-transferase encoded by vector pGEX-3X (Pharmacia)
T9 sequence: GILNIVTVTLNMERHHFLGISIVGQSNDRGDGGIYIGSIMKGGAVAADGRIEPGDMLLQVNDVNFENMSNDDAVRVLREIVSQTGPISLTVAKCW

[10] = target: T10, K316 PDZ-GST fusion protein (Homo sapiens (Human), UniProt Q14CM0 72-159)
T10 construct: Order of GST and PDZ part and limits not seen in the excerpts

[11] = target: T11, GST-TAX-IP43 PDZ domain fusion protein (human, UniProt Q13884 109-180)
T11 construct: also called TAX43; not shown: glutathione S-transferase encoded by vector pGEX-3X (Pharmacia)
T11 sequence: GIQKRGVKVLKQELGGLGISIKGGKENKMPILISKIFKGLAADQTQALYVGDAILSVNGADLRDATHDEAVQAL

[12] = target: T12, X11β PDZ-GST fusion protein (Rattus norvegicus (Rat), UniProt O35431 560-745)
T12 construct: Order of GST and PDZ part and limits not seen in the excerpts
T12 chain: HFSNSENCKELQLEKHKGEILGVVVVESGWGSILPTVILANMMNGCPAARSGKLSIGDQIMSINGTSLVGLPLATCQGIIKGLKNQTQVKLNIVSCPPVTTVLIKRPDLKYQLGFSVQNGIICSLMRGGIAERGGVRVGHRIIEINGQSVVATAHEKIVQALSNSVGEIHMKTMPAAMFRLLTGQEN

[13] = target: T13, GST-MPP1 PDZ domain fusion protein (Homo sapiens (Human), UniProt Q00013 67-152)
T13 construct: also called p55; 55 Kd erythrocyte membrane protein; not shown: glutathione S-transferase encoded by vector pGEX-3X (Pharmacia)
T13 sequence: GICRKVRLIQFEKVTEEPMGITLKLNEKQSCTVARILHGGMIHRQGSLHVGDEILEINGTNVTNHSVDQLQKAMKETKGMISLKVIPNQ

[14] = target: T14, GST-TIAM1 PDZ domain fusion protein (Homo sapiens (Human), UniProt Q13009 845-931)
T14 construct: also called TLAM1; T-lymphoma invasion and metastasis inducing protein 1; not shown: glutathione S-transferase encoded by vector pGEX-3X (Pharmacia)

[15] = target: T15, GST-KIAA0303 PDZ domain fusion protein (Homo sapiens (Human), UniProt O15021 1138-1228)
T15 construct: also called K303; not shown: glutathione S-transferase encoded by vector pGEX-3X (Pharmacia)
T15 sequence: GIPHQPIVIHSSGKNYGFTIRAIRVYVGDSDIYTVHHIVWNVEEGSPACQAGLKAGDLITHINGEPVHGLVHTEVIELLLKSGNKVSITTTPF

Measured: binding result

T10 sequence (Q14CM0 72-159 limits assumed): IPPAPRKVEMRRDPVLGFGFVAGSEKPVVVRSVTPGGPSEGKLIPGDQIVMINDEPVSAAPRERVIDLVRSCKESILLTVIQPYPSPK
T14 sequence (Q13009 other isoform, or with tags, fused parts or gaps): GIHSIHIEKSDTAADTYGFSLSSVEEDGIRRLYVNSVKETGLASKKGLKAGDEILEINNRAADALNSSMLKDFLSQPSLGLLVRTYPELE

B1: VCAM1 C-terminal peptide AA17L, biotinylated (peptide)
peptide: Biotin-ARKANMKGSYSLVEAQKSKV
notes: also called CD106
not listed: [13] | [14] | [15]
no binding: all other assays above

B2: PAG C-terminal peptide AA58L, biotinylated (peptide)
peptide: Biotin-KENDYESISDLQQGRDITRL
notes: also called Phosphoprotein Associated with GEMs
not listed: [10]
no binding: all other assays above

B3: KV1.3 C-terminal peptide AA33L, biotinylated (peptide)
peptide: Biotin-TTNNNPNSAVNIKKIFTDV
not listed: [4] | [9]
no binding: all other assays above

B4: CD3n C-terminal peptide AA4L, biotinylated (peptide)
peptide: Biotin-SVFSIPTLWSPWPPSSSSQL
notes: also called CD3η; CD3-eta
no binding: all assays above

B5: Spectrin (beta) C-terminal peptide AA32L, biotinylated (peptide)
peptide: Biotin-SFPPCGHRENVPGQSLVSFV
notes: Marked (S), sticky; also called Spectrin beta (S); Spectrin β
no binding: [4] | [5] | [6] | [14] | [9] | [12]

B6: CDW128B (IL8RB) C-terminal peptide AA29.2L, biotinylated (peptide)
peptide: Biotin-KDSRPSFVGSSSGHTSTTL
notes: also called CDW128E (IL8RB)
not listed: [4]
no binding: all other assays above

B7: LPAP C-terminal peptide AA30L, biotinylated (peptide)
peptide: Biotin-AWDDSARAAGGQGLHVTAL
not listed: [10]
no binding: all other assays above
